Test results as given in US20240116985A1, “STAPLED PEPTIDES AND METHODS THEREOF” (priority 2020, published 2024).
Blank lines part the entries; values can stand above or below the binder they belong to. Starred links: 1 amine or outer side, 2 acyl side, 3 side chain; linkers in the order of their positions; H or OH if unused. Positions of bridges follow the written chain, without caps; N, C: chain ends. Non-standard residues stand in square brackets, D forms with d. Primed or numbered codes have the meaning given here. No end group written: not given here. PyrS2″ = (S)-3-amino-1-((pent-4-en-1-yloxy)carbonyl)pyrrolidine-3-carboxylic acid (stapling residue), C=CCCCOC(=O)N1CC[C@@](N[*:1])(C(=O)[*:2])C1; B5(16) = 2-amino-2-(pent-4-en-1-yl)hept-6-enoic acid = 2,2-bis(4-pentenyl)glycine (stitching residue), C=CCCCC(CCCC=C)(N[*:1])C(=O)[*:2]; B5(30) = 2-amino-2-(pent-4-en-1-yl)hept-6-enoic acid (2,2-bis(4-pentenyl)glycine, stitching residue), C=CCCCC(CCCC=C)(N[*:1])C(=O)[*:2]; B5(4) = 2,2-bis(4-pentenyl)glycine = 2-amino-2-(pent-4-en-1-yl)hept-6-enoic acid (stitching residue), C=CCCCC(CCCC=C)(N[*:1])C(=O)[*:2]; B5(5) = 2,2-bis(4-pentenyl)glycine, 2-amino-2-(pent-4-en-1-yl)hept-6-enoic acid (stitching residue), C=CCCCC(CCCC=C)(N[*:1])C(=O)[*:2]; PyrS2 = (S)-3-amino-1-((pent-4-en-1-yloxy)carbonyl)pyrrolidine-3-carboxylic acid, C=CCCCOC(=O)N1CC[C@@](N[*:1])(C(=O)[*:2])C1; B5(12) = 2-amino-2-(pent-4-en-1-yl)hept-6-enoic acid (two olefin side chains), C=CCCCC(CCCC=C)(N[*:1])C(=O)[*:2]; Phe(3-COOH) = N[C@@H](Cc1cccc(C(=O)O)c1)C(=O)O; Phe(2-CF3) = N[C@@H](Cc1ccccc1C(F)(F)F)C(=O)O; Phe(2-Cl) = N[C@@H](Cc1ccccc1Cl)C(=O)O; Phe(2-Me) = Cc1ccccc1C[C@H](N)C(=O)O; Bta = N[C@@H](Cc1csc2ccccc12)C(=O)O; Lys(iPr) = CC(C)NCCCC[C@H](N)C(=O)O; αAllylPro = C=CC[C@@]1(C(=O)O)CCCN1; tBuAla = CC(C)(C)C[C@H](N)C(=O)O; 3Thi = N[C@@H](Cc1ccsc1)C(=O)O; Cha = N[C@@H](CC1CCCCC1)C(=O)O; Thr(ol) = C[C@@H](O)[C@H](N)CO; PyrS2(4) = not defined here

Key:
[1] = target: B-cat-Halo (beta-catenin HaloTag NanoBRET construct expressed in HEK293 cells) (UniProt P35222); assay: NanoBRET Abs IC50 in HEK293 cells; Bcat-Halo, competitor TCF4-Luc
B-cat-Halo (beta-catenin HaloTag NanoBRET construct expressed in HEK293 cells), sequence (P35222 whole entry): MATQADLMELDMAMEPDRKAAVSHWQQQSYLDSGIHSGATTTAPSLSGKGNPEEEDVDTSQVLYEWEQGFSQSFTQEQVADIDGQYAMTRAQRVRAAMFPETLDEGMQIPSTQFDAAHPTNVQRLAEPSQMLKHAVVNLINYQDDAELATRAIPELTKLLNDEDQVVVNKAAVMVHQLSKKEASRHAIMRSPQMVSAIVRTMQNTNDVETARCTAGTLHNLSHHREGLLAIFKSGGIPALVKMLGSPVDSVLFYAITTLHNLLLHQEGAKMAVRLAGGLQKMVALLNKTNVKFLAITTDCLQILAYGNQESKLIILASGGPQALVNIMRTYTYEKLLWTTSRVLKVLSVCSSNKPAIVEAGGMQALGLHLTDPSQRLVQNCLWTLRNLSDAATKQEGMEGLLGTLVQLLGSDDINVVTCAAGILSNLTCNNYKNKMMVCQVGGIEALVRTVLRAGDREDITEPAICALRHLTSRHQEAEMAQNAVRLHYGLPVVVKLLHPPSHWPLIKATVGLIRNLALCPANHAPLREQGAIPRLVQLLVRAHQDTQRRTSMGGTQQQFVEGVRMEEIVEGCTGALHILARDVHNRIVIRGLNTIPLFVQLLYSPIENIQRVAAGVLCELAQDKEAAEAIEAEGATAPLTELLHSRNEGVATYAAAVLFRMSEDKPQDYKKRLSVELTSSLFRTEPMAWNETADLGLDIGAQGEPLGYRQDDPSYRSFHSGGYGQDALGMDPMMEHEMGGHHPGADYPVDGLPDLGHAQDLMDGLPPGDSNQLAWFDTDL

Bcat-Halo [2] = target: Bcat-Halo (UniProt P35222); assay: NanoBRET absolute IC50, HEK293 cells, Bcat-Halo/TCF4-Luc engagement
Bcat-Halo, sequence (P35222 whole entry): as above

[3] = target: full-length beta-Catenin (Uniprot ID P35222) (Homo sapiens (Human)) (UniProt P35222); assay: FP competition, full-length beta-catenin, competitor probe 5FAM-TCF4 10-53
Target sequence in this assay (P35222 2-781 limits assumed): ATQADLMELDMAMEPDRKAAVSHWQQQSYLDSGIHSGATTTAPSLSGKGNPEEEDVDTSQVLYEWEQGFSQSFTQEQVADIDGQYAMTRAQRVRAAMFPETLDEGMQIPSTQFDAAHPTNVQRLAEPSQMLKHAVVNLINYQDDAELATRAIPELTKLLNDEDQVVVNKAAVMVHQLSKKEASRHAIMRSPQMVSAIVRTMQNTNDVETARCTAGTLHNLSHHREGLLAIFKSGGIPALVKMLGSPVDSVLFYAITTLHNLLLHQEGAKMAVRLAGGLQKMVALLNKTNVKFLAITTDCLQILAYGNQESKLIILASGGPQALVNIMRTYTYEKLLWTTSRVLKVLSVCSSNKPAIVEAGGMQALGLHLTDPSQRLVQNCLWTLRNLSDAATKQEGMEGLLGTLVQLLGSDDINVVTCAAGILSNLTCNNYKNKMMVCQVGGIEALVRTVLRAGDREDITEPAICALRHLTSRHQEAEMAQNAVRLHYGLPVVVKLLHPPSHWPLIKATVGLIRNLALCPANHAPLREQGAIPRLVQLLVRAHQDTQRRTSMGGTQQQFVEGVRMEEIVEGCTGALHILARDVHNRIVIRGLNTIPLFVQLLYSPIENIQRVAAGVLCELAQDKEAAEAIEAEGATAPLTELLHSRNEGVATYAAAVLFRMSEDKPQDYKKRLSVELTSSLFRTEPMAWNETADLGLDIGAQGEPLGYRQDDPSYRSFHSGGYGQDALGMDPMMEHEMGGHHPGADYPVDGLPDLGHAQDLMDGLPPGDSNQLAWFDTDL

[4] = target: full-length beta-Catenin (Uniprot ID P35222) (Homo sapiens (Human)) (UniProt P35222); assay: fluorescence polarization competition; full-length beta-catenin, competitor 5FAM-TCF4(10-53) probe
Target sequence in this assay (P35222 2-781 limits assumed): as above

Bcat-Halo [5] = target: Bcat-Halo (UniProt P35222); assay: NanoBRET (Abs IC50) in HEK293 cells; Bcat-Halo / TCF4-Luc
[6] = target: full-length beta-Catenin (Uniprot ID P35222) (Homo sapiens (Human)) (UniProt P35222); assay: FP competition; full-length beta-catenin + 5FAM-TCF4(10-53) probe
Target sequence in this assay (P35222 whole entry, one chain of several): as the sequence (P35222 whole entry) above

[7] = target: full-length beta-Catenin (Uniprot ID P35222) (Homo sapiens (Human)) (UniProt P35222); assay: fluorescence polarization competition; full-length beta-catenin with 5FAM-TCF4(10-53) probe, peptide titrated
Target sequence in this assay (P35222 whole entry, one chain of several): as the sequence (P35222 whole entry) above

Bcat-Halo [8] = target: Bcat-Halo (UniProt P35222); assay: NanoBRET Abs IC50, HEK293 cells transfected with Bcat-Halo and TCF4-Luc (competitor: TCF4-Luc); cellular assay
[9] = target: full-length beta-Catenin (Uniprot ID P35222) (Homo sapiens (Human)) (UniProt P35222); assay: fluorescence polarization competition; 10 nM full-length beta-catenin + 10 nM 5FAM-TCF4 10-53 as competitor probe
Target sequence in this assay (P35222 2-781 limits assumed): as the sequence (P35222 2-781 limits assumed) above

[10] = target: full-length beta-Catenin (Uniprot ID P35222) (Homo sapiens (Human)) (UniProt P35222); assay: cell-based or functional assay
[11] = target: full-length beta-Catenin (Uniprot ID P35222) (Homo sapiens (Human)) (UniProt P35222); assay: fluorescence polarization competition; peptide titrated against 5FAM-TCF4(10-53) bound to full-length beta-catenin
Target sequence in this assay (P35222 whole entry, one chain of several): as the sequence (P35222 whole entry) above

Bcat-Halo [12] = target: Bcat-Halo (UniProt P35222); assay: NanoBRET absolute IC50 in HEK293 cells; Bcat-Halo, competitor TCF4-Luc
[13] = target: full-length beta-Catenin (Uniprot ID P35222) (Homo sapiens (Human)) (UniProt P35222); assay: fluorescence polarization competition; full-length beta-catenin, competitor 5FAM-TCF4 10-53
Target sequence in this assay (P35222 whole entry, one chain of several): as the sequence (P35222 whole entry) above

[14] = target: full-length beta-Catenin (Uniprot ID P35222) (Homo sapiens (Human)) (UniProt P35222); assay: fluorescence polarization competition; competitor 5FAM-TCF4(10-53) probe on full-length beta-catenin
Target sequence in this assay (P35222 whole entry, one chain of several): as the sequence (P35222 whole entry) above

Binder: [αAllylPro]D[tBuAla][B5(4)]D[Phe(3-COOH)]AAFF[PyrS2″][Phe(2-Cl)][Bta][Thr(ol)] (staple 1-4; staple 4-11 (inferred)) [I-1340]
IC50 [1]: 6800 nM
IC50 (Bcat-Halo [2]): 6800 nM
IC50 [3]: 159 nM
EC50 [4]: 159 nM

Binder: Ac-[αAllylPro]D[tBuAla][B5(5)]D[Phe(3-COOH)]AAFA[PyrS2″][Phe(2-Cl)][Bta]A-NH2 (staple 1-4, 4-11) [I-2023]
IC50 (Bcat-Halo [5]): 7800 nM
IC50 [6]: 32 nM

Binder: Ac-[αAllylPro]D[tBuAla][B5(5)]D[Phe(3-COOH)]AAFA[PyrS2″][Phe(2-Cl)][Bta][dA]-NH2 (staple 1-4, 4-11) [I-2026]
IC50 (Bcat-Halo [5]): 9700 nM
IC50 [6]: 26 nM

Binder: Ac-[αAllylPro]D[tBuAla][B5(30)]NRAAFN[PyrS2][3Thi][Bta]Q-NH2 (staple 1-4, 4-11; also: earlier-eluting HPLC isomer) [I-1892]
IC50 [11]: 1420 nM

B1: I-1911 (peptide)
peptide: Ac-[αAllylPro]D[tBuAla][B5(12)]D[Phe(3-COOH)]KAFL[PyrS2(4)][3Thi][Bta]F-NH2
modifications: staple 1-4, 4-11; not fully specified; printed as Ac-PL3-Asp-Npg-B5-Asp-3COOHF-Lys-Ala-Phe-Leu-PyrS2-3Thi-BztA-Phe-NH2; reading uncertain
IC50 [11]: 38 nM

Binder: [αAllylPro]D[tBuAla][B5(4)]D[Phe(3-COOH)]AAFF[PyrS2″][Phe(2-Cl)][Bta]Q-NH2 (staple 1-4; staple 4-11 (inferred)) [I-1338]
IC50 [1]: 3600 nM
IC50 (Bcat-Halo [2]): 3600 nM
IC50 [3]: 10 nM
EC50 [4]: 10 nM

Binder: Ac-[αAllylPro]D[Cha][B5(5)]DDAAFS[PyrS2″][Phe(2-Cl)][Bta]Q-NH2 (staple 1-4, 4-11) [I-1044]
DLD1 4% Abs IC50 [10]: 14500 nM
DLD1 reporter assay Abs IC50 [10]: 20000 nM
IC50 [7]: 5 nM
IC50 (Bcat-Halo [8]): 17600 nM
EC50 [9]: 5 nM

B2: I-1904 (peptide)
peptide: Ac-[αAllylPro]D[tBuAla][B5(12)]D[Phe(3-COOH)]AAFL[PyrS2(4)][Phe(2-Cl)][Bta]N-NH2
modifications: staple 1-4, 4-11; not fully specified; printed as Ac-PL3-Asp-Npg-B5-Asp-3COOHF-Ala-Ala-Phe-Leu-PyrS2-2C1F-BztA-Asn-NH2; reading uncertain
IC50 [11]: 15 nM

Binder: Ac-[αAllylPro]D[tBuAla][B5(5)]DDAAFL[PyrS2″][Phe(2-Cl)][Bta][dT]-NH2 (staple 1-4, 4-11) [I-1035]
DLD1 reporter assay Abs IC50 [10]: > 20000 nM
IC50 (Bcat-Halo [12]): 10200 nM
IC50 [13]: 21 nM
IC50 (Bcat-Halo [8]): 10200 nM
EC50 [9]: 21 nM

Binder: Ac-[αAllylPro]E[tBuAla][B5(5)]DDAAFN[PyrS2″][Phe(2-Cl)][Bta][dT]-NH2 (staple 1-4, 4-11) [I-1029]
DLD1 reporter assay Abs IC50 [10]: > 20000 nM
IC50 (Bcat-Halo [12]): > 20000 nM
IC50 [13]: 823 nM
IC50 (Bcat-Halo [8]): > 20000 nM
EC50 [9]: 823 nM

B5: I-1891 (peptide)
peptide: Ac-[αAllylPro]D[tBuAla][B5(5)]DRAAFN[PyrS2][3Thi][Bta]Q-NH2
modifications: staple 1-4, 4-11; not fully specified; printed as Ac-PL3-Asp-Npg-B5-Asp-Arg-Ala-Ala-Phe-Asn-PyrS2-3Thi-BztA-Gln-NH2
IC50 [11]: 40 nM

Binder: [αAllylPro]D[tBuAla][B5(4)]D[Phe(3-COOH)]AAFF[PyrS2″][Phe(2-Cl)][Bta]S-NH2 (staple 1-4; staple 4-11 (inferred)) [I-1339]
IC50 [1]: 5200 nM
IC50 (Bcat-Halo [2]): 5200 nM
IC50 [3]: 33 nM
EC50 [4]: 33 nM

Binder: [αAllylPro]D[tBuAla][B5(4)]DDAAFF[PyrS2″][Phe(2-Me)][Bta]Q-NH2 (staple 1-4, 4-11) [I-1326]
IC50 [1]: 6200 nM
EC50 [4]: 12 nM
IC50 [14]: 12 nM

Other lines, results leading:

IC50 [7]: 5 nM
IC50 (Bcat-Halo [8]): 20500 nM
EC50 [9]: 5 nM
Binder: Ac-[αAllylPro]D[Cha][B5(5)]DDAAFN[PyrS2″][Phe(2-Cl)][Bta]S-NH2 (staple 1-4, 4-11) [I-1046]

DLD1 reporter assay Abs IC50 [10]: 11200 nM
IC50 [7]: 5 nM
IC50 (Bcat-Halo [8]): 24800 nM
EC50 [9]: 5 nM
Binder: Ac-[αAllylPro]D[Cha][B5(5)]DDAAFS[PyrS2][Phe(2-Cl)][Bta]S-NH2 (staple 1-4, 4-11) [I-1050]

IC50 (Bcat-Halo [5]): 17900 nM
IC50 [6]: 78 nM
Binder: Ac-[αAllylPro]D[tBuAla][B5(5)]D[Phe(3-COOH)]AAFA[PyrS2″][Phe(2-Cl)][Bta]V-NH2 (staple 1-4, 4-11) [I-2024]

IC50 [1]: 7000 nM
IC50 (Bcat-Halo [2]): 7000 nM
IC50 [3]: 35 nM
EC50 [4]: 35 nM
Binder: [αAllylPro]D[tBuAla][B5(4)]D[Phe(3-COOH)]AAFF[PyrS2″][Phe(2-CF3)][Bta]S-NH2 (staple 1-4; staple 4-11 (inferred)) [I-1342]

IC50 [1]: 3500 nM
IC50 (Bcat-Halo [2]): 3500 nM
IC50 [3]: 17 nM
EC50 [4]: 17 nM
Binder: [αAllylPro]D[tBuAla][B5(4)]D[Phe(3-COOH)]AAFF[PyrS2″][Phe(2-CF3)][Bta]Q-NH2 (staple 1-4; staple 4-11 (inferred)) [I-1341]

DLD1 reporter assay Abs IC50 [10]: > 20000 nM
IC50 (Bcat-Halo [12]): > 20000 nM
IC50 [13]: 507 nM
IC50 (Bcat-Halo [8]): > 20000 nM
EC50 [9]: 507 nM
Binder: Ac-[αAllylPro]D[tBuAla][B5(5)]EDAAFN[PyrS2″][Phe(2-Cl)][Bta][dT]-NH2 (staple 1-4, 4-11) [I-1030]

IC50 [11]: 17 nM
B3: I-1910 (peptide)
peptide: Ac-[αAllylPro]D[tBuAla][B5(12)]D[Phe(3-COOH)]HAFL[PyrS2(4)][3Thi][Bta]F-NH2
modifications: staple 1-4, 4-11; not fully specified; printed as Ac-PL3-Asp-Npg-B5-Asp-3COOHF-His-Ala-Phe-Leu-PyrS2-3Thi-BztA-Phe-NH2; reading uncertain

IC50 [11]: 29 nM
B4: I-1909 (peptide)
peptide: Ac-[αAllylPro]D[tBuAla][B5(12)]D[Phe(3-COOH)][Lys(iPr)]AFL[PyrS2(4)][3Thi][Bta]F-NH2
modifications: staple 1-4, 4-11; not fully specified; printed as Ac-PL3-Asp-Npg-B5-Asp-3COOHF-iPrLys-Ala-Phe-Leu-PyrS2-3Thi-BztA-Phe-NH2; reading uncertain
